Key:
[1] = target: bovine thyroglobulin (bovine) (UniProt P01267); experiment: phage ELISA, 200 ug/ml thyroglobulin coated
[2] = target: fd h-PDGFB-R phage (extracellular domain of the human receptor for PDGF isoform BB displayed on fd phage) (human; bacteriophage fd) (UniProt P09619); experiment: displacement of 125I-PDGF-BB from receptor phage, immunoprecipitation
Sequence of fd h-PDGFB-R phage (extracellular domain of the human receptor for PDGF isoform BB displayed on fd phage) (human; bacteriophage fd) (P09619 33-531, form in doubt): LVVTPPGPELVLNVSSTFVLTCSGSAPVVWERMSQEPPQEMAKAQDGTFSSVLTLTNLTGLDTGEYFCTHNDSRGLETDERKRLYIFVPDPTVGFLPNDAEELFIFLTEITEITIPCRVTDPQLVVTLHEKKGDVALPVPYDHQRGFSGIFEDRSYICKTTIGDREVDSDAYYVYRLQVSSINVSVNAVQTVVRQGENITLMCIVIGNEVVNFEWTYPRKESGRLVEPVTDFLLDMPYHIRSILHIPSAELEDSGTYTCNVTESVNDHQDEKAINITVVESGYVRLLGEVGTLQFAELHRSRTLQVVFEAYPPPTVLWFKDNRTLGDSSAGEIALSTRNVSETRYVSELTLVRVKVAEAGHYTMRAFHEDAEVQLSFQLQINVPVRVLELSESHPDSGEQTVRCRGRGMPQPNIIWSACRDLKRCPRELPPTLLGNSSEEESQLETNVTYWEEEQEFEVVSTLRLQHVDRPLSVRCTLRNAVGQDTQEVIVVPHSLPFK

Sequence of bovine thyroglobulin (bovine) (P01267 20-2769 limits assumed): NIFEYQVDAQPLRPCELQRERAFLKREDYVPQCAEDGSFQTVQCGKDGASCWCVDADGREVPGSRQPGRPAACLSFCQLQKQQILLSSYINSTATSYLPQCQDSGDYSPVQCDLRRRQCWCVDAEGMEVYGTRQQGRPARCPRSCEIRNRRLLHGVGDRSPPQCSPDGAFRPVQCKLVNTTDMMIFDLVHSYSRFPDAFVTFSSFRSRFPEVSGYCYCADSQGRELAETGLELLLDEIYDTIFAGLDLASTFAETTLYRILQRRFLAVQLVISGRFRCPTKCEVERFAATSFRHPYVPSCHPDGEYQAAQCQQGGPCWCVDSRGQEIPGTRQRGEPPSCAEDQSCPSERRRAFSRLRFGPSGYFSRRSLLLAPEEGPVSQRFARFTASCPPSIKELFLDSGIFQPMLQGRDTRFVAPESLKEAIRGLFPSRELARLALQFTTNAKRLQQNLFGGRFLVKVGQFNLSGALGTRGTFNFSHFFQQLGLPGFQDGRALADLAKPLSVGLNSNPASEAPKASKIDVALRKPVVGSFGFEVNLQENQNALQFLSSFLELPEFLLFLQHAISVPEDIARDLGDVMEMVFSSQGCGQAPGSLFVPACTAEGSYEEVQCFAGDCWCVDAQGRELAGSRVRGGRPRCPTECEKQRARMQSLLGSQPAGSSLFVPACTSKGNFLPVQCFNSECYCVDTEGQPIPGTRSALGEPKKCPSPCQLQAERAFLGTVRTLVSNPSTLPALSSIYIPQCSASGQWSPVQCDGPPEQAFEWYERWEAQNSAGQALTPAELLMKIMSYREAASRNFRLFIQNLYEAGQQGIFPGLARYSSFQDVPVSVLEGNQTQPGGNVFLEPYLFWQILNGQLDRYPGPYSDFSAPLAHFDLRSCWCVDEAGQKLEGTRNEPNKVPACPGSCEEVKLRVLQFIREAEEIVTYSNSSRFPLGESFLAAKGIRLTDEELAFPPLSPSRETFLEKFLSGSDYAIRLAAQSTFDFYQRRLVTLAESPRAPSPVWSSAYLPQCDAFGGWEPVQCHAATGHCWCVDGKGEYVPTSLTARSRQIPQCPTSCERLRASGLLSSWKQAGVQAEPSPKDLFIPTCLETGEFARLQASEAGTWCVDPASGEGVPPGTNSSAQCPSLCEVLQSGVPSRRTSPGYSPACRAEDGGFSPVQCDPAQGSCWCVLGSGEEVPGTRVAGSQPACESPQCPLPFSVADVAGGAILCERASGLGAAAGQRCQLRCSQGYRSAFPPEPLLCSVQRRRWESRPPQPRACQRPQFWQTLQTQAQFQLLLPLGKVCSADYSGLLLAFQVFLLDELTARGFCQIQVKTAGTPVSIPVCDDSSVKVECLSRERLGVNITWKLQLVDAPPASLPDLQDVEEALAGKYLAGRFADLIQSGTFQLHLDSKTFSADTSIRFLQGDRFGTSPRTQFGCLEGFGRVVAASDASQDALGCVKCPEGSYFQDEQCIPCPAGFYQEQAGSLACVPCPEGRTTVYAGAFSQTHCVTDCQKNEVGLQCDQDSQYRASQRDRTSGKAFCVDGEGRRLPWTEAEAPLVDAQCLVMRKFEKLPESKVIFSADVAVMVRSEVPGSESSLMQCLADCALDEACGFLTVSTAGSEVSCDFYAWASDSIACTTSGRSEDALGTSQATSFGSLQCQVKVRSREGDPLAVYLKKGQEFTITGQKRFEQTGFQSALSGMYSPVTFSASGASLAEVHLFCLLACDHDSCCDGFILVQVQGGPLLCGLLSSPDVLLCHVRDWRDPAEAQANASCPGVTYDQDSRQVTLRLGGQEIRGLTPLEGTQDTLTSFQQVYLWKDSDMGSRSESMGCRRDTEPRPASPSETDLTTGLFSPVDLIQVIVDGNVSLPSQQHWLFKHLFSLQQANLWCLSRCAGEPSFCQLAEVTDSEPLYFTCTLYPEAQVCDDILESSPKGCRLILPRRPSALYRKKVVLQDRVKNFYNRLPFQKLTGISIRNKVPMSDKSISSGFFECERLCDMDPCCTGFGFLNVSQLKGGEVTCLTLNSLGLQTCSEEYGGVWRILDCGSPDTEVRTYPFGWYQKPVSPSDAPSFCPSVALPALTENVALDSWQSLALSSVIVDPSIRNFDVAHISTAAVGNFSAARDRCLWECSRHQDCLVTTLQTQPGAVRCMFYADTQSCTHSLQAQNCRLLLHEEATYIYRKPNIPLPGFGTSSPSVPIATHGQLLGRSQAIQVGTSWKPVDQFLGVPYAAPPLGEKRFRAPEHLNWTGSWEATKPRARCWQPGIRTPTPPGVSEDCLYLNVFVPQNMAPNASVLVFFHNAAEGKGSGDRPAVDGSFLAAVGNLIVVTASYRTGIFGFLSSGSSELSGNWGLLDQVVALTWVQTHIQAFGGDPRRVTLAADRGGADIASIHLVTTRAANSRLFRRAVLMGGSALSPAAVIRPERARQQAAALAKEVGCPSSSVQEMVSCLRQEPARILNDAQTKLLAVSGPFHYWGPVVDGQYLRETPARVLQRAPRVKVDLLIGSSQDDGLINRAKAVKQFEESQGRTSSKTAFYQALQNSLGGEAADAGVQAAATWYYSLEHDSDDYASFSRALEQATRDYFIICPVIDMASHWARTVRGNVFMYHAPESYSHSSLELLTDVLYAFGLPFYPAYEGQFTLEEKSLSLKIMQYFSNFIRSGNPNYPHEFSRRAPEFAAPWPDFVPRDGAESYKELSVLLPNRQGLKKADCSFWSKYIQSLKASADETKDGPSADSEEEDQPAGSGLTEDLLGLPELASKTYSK

How did the O.D. in ELISA [1] turn out when “pCAT-3 non-recombinant vector phagemid particles (from UniProt P03661 19-424)” was run?
The O.D. in ELISA was 0.07 O.D.

With “unlabelled PDGF-BB (from UniProt P01127 82-190; P01127 82-190) (ligand)” as the substance, how does the concentration at which binding of 125I-PDGF-BB was reduced to the control level [2] read?
The concentration at which binding of 125I-PDGF-BB was reduced to the control level was 50 nM.

Reference: patent US20070148774A1
